The data set is described as follows: yeast display, Sf9 membrane polyspecificity reagent, FACS + sequencing; frameworks hold sequencing errors. The procedure, abridged:
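Nanobodies from a synthetic yeast display library (Saccharomyces cerevisiae BJ5465), induced 36–48 hours with galactose, were stained 1 hour at 4 °C with 10% biotinylated, detergent-solubilized Sf9 membrane reagent, enriched on streptavidin microbeads, then FACS-sorted. Anti-HA (expression) and streptavidin (reagent binding) fluorescence set low and high (top ~1%) gates. Polyreactivity labels come from the gate of origin. Genes were colony-PCR amplified, MiSeq 2 × 250 sequenced and filtered by CDR length.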
Take “QVQLVESGGGLVQAGGSLRLSCAASGSTFVSNAMGWYRQAPGKESELVAAISSSGGRTSYADSVKGRFTISRDHANNTVYLQMNSLKPEDTAVYYCNTLVVPYTDFKTSYNVDYWGQGTQVTVSS”: the “polyreactivity (PSR sort gate)” value was “low polyreactivity”. As for “QVQLVESGGGLVQAGGSLRLSCAASGSTFVSYAMGWYRQAPGKERELVAGISWSGTRTYYADSVKGRFTISRDNAKNTVYLQMNSLKPEDTAVYYFNAVYKYNYRTLDYWGQGTQVTVSS”, the entry is “high polyreactivity”; as for “QVQLVESGGGLVQAGGSLRLSCAASGSTFVSYDMGWYRQAPGKERELVAAIDWSGGNTDYADSVKGRFTISRDNAKNTVYLQMNSLKPEDNAVYYCAVEKFFRAEYDHWGQGTQVTVSS”, “low polyreactivity”; as for “QVQLVESGGGLVQAGGSLRLSCAASGSTFVTNDMGWYRQAPGKERELVAAISSGTSTNYADSVKGRFTISRDNAKNTVYLQMNSLKPEDTAVYYCAADSLKRYDYWGQGTQVTVSS”, “low polyreactivity”. As to “QVQLVESGGGLVQAGGSLRLSCAASGSTFVTYAMGWYRQAPGKEREFVAAISTTGTGRTYYADSVKGRFTISRDNAKNTVYLQMNSLKPEDTAVYYCAADLYGTYDYWGQGTQVTVSS”, the “polyreactivity (PSR sort gate)” value is “low polyreactivity”.

Consider “QVQLVESGGGLVQAGGSLRLSCAASGSTFVTYAMGWYRQAPGKERELVASISRGGSTKYADSVKGRFTISRDNAKNTVYLQMNSLKPEDTAVYYCAAKAKNYRLGPFDYWGQGTQVTVSS”, for which the “polyreactivity (PSR sort gate)” value is “low polyreactivity”. In the case of “QVQLVESGGGLVQAGGSLRLSCAASGSTFVTYARGWYRQAPGKERELVAAISRRAGRTYYADSVKGRFTISRDNAQNTVSLQMNSLKPEDTAVYYCAKQAYEAFYTGDDYDYWGQGTKVTVSS”, the “polyreactivity (PSR sort gate)” value is listed as “high polyreactivity”.

On to “QVQLVESGGGLVQAGGSLRLSCAASGSTFVVNAMGWYRPAQGKERELVAAISRSGTSTYYADSVKGRFTISRDNAKKTVYLQMNSLKPEDSAVYYCNAVGSYYPPDYWGQGTQVTVSS”, for which the “polyreactivity (PSR sort gate)” value was “high polyreactivity”.

For “QVQLVESGGGLVQAGGSLRLSCAASGSTFVVNAMGWYRQAPGKERELVAAIDGSDGSTYYADSVKGRFTISRDNAKNTVYLQMNSLKPEDTAVYYCAAEVLGRPDVENDYWGQGTQVTVSS”, the “polyreactivity (PSR sort gate)” value is given as “low polyreactivity”. As for “QVQLVESGGGLVQAGGSLRLSCAASGSTFVVNAMGWYRQAPGKERELVAAITQSGGSTFYADSVKGRFTISRDNAKNTVYFQMNSLKPEDTAVYYWGQGTQVTVSS”, the entry is “low polyreactivity”.

For the sequence “QVQLVESGGGLVQAGGSLRLSCAASGSTFVVNAMGWYSQAPGKERELVAAIDGSDGSTYYADSVKGRFTISRDNAKNTVYLQMNSLKPEDTAVYYCAAEVLGRPDVENDYWGQGTHVTVSS”, the “polyreactivity (PSR sort gate)” value is “low polyreactivity”. As for “QVQLVESGGGLVQAGGSLRLSCAASGSTFVWNAMGWYRQAPGKERELVAAITSSGGSTYYADSVKGRFTISRDNAKNTVYLQMNSLKPEDTAVYYCAATGVNYRGLLGVAWGNNYWGQGTQVTVSS”, the entry is “low polyreactivity”; as for “QVQLVESGGGLVQAGGSLRLSCAASGSTFVWYAMGWYRQAPGKEREFVATISWSDGSTYYADSVKGRFTISRDNAKNTVYLQMNSLKPEDTAVYYCASDVDRFFTYKYDYWGQGTQVTVSS”, “low polyreactivity”.

For the sequence “QVQLVESGGGLVQAGGSLRLSCAASGSTFVWYAMVWYRQAPGKEREFVATISWSDGSTYYADSVKGRFTISRDNAKNTVYLLMNSLKPEVTAVYYCASDVDRFFSYKYDYWGQGTQVTVSS”, the “polyreactivity (PSR sort gate)” value is recorded as “low polyreactivity”. As for “QVQLVESGGGLVQAGGSLRLSCAASGSTFVYNAMGSYRQAPGKEREFVAAISGSGGSTYYADSVKGRFTISRDNAKNTVYLQMNSLKPEDTAVYYCATAGRYGLYRTYPYRSKYDYWGQGTQVTVSS”, the entry is “high polyreactivity”; as for “QVQLVESGGGLVQAGGSLRLSCAASGSTFVYNAMGWYRPAPGKERELVAAISARTGRTYYADSVKGRFTISRDNAKNTVYLQMNSLKPEDTAVYYCAAGLIVGRFLRYDYWGQGTQVTVSS”, “high polyreactivity”. As for “QVQLVESGGGLVQAGGSLRLSCAASGSTFVYNAMGWYRQAPGKERELVAAISARTGRTYYADSVKGRFTISRDNAKNTVYLQMNSLKPEDTAVYYCARRYYTGYKNLPYGYWGQGTQVTVSS”, the entry is “high polyreactivity”. As for “QVQLVESGGGLVQAGGSLRLSCAASGSTFVYNTMGWYTQAPGKERELVAGIDWSGGRTFYADSVKGRFTISRDNAKNTVYLQMNSLKPEDTAVYYCAKRLRVYRPWTYNYWGQGTQVTVSS”, the entry is “high polyreactivity”. On to “QVQLVESGGGLVQAGGSLRLSCAASGSTFVYNVMGWYRQAPGKERELVAAITSCVRTYYADSVKGRFTISRDNAKNTVYLQMNSLKPEDTAVYYCAARGYYSVVEYYYWGQGTQVTVSS”, for which the “polyreactivity (PSR sort gate)” value is “high polyreactivity”.

In the case of “QVQLVESGGGLVQAGGSLRLSCAASGSTFVYYAMGWYRQAPGKERELGAAITASGGGTYYADSVKGRFTISRDNAKNTVYLQMNSLKPEDTAVYYCNRGYDYWGQGTQVTVSS”, the “polyreactivity (PSR sort gate)” value was “low polyreactivity”. As for “QVQLVESGGGLVQAGGSLRLSCAASGSTFVYYAMGWYRQAPGKERELVADISWSGGDTYYADSVKGRFTISRDNAKNTVYFQMNSLKPEDTAVYYCAAEWSTPSYVGFADGFEYWGQGTQVTVSS”, the “polyreactivity (PSR sort gate)” value is given as “low polyreactivity”.

Turning to “QVQLVESGGGLVQAGGSLRLSCAASGSTFVYYGMGWYRQAPGKERELVAAITDIGDSTNYADSVKGRFTISRDNAKNTVYLQMNSLKPEDTAVYYCAASGRSVPYYGSPRNDYWGQGTQVTVSS”, the “polyreactivity (PSR sort gate)” value was “low polyreactivity”. As for “QVQLVESGGGLVQAGGSLRLSCAASGSTFWANAMGWYRQAPGKERELVAAITSTGITYYADSVKGRFTISRDNAKNTVYLQMNSLKPEDTAVYYCAADGYRYSVYLIRNPMDYWGQGTQVTVSS”, the entry is “low polyreactivity”. As for “QVQLVESGGGLVQAGGSLRLSCAASGSTFWAYAMGWYRQAPGKERELVAAITTGGGRTFYADSVKGRFTISRDNAKNTVYLQMNSLKPEDTAVYYCAAVSQSYRMYYWGEGTQVTVSS”, the entry is “low polyreactivity”. As for “QVQLVESGGGLVQAGGSLRLSCAASGSTFWAYVMGWYRQAPGKERELVAAISKSGVRTHYADSVKGRFTISRDNAKNTVYLQMNSLKPEDTAVYYCAAGGVGNLDDYWGQVTQVTVSS”, the entry is “high polyreactivity”; as for “QVQLVESGGGLVQAGGSLRLSCAASGSTFWFNAMGWYRQAPGKERELVAISGSVGSTYADSVKGRFTISRDNAKNTVYLQMNSLKPEDTAVYYCNADSVWYRNPWSFSPRYNYWGQGTQVTVSS”, “low polyreactivity”; as for “QVQLVESGGGLVQAGGSLRLSCAASGSTFWFYAMGWYRQAPGKERELVAAISSSGTNTYYADSVKGRFTISRDNAKNTVYLQMNSLKPEDTAVCYCAAQYRGSYRTTYDYWGQCTQVTVSS”, “low polyreactivity”. “QVQLVESGGGLVQAGGSLRLSCAASGSTFWGNAMGWYRQAPGKERELVAAISTSDTSTYYADSVKGRFTISRDNAKNTVYLQMNSLKPEDTAVYYCAAEWYYGEKYDYWVQGTQVTVSS”: the “polyreactivity (PSR sort gate)” value is reported as “low polyreactivity”. As for “QVQLVESGGGLVQAGGSLRLSCAASGSTFWGYALGWYRQAPGKERELVASIRRGASTTYADSVKGRFTISRDNAKNTVYLQMNSLKPEDSAVYYCAKPGYFRSHDYWGQGTQVTVSS”, the entry is “low polyreactivity”. As for “QVQLVESGGGLVQAGGSLRLSCAASGSTFWGYVMGWYRQAPGKERELVAAITGSGGSTYYADSVKGRFTISRDNAKNTVYLQMNSLKPEDTAVYYCAAAWSKSTSRRYGYWGQGTQVTVSS”, the entry is “low polyreactivity”.

These data come from the nanobody polyreactivity screen of Harvey et al. (2022).
